# In PMC8063735:
# T1: citrate synthase (UniProt P00889)
# T1 sequence: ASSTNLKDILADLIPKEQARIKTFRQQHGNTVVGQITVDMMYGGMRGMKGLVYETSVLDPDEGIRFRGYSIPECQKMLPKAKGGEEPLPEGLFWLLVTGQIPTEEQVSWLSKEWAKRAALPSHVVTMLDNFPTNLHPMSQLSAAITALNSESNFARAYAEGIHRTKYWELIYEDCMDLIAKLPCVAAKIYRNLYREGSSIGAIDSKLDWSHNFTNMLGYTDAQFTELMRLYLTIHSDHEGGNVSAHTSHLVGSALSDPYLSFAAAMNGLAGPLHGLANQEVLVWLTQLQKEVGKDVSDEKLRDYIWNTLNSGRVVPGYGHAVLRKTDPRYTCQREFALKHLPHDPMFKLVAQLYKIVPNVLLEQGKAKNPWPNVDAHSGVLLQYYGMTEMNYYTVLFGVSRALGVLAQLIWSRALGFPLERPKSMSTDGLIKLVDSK
# Tests used:
# citrate synthase [1] = target: T1, citrate synthase
# citrate synthase [2] = target: T1, citrate synthase; remark: listed apart in the source
differential centrifugation after the light scatter assay: per cent of CS in the pellet (citrate synthase [1]) [%],"suppression of aggregation of chemically denatured CS, light scattering at 320 nm, chaperone to substrate 1:1, 2:1 and 4:1 (citrate synthase [2]) [%]",Molecule
4,–,Hsp110^ΔSBDβ (from UniProt Q9VUC1 1-804) (natural protein)
–,50,Drosophila melanogaster Hsp110 (Hsc70cb-encoded protein) (natural protein) MSVIGIDFGNESCYVAAARSGGIETLANDYSLRATPSFVAFDGKKRIIGVAAKNQQVTNMKNTVGGFKRLLGRKFNDPHVQHELTSIPARVEARGDGSIGIKVNYLGEDQHFGPEQLTAMLFTKLKETSAAAMQTQVNDCVIACPVFFTNAERKALLDAAQIAGLNVLRLMNETTATALAYGFYKNDLFEDKPRNVIFVDFGHSSLQASACAFTKGKLKMLASTWDQIGGRDIDLALGDYFAKEFQERYKINAKTNARANLRLLTEIEKLKKQMSANSTKLPLNIECFLDDIDVSSSMQRSQMEELCAPVLQRVEQTFKRLLAESKLQLDDIHSVEIVGGSSRIPSVKQLIEQVFNKPASTTLNQDEAVSRGAALQCAIMSPAVRVREFGVTDIQNYAVKVLWDSEGSAAPGEIEIFPQYHASPFSRLLTINRKGPFNVSIVYGQQVPYPDQTIGVWKVKDVKPTERGEGQDVKLKVRINNNGIVLISSATLVEKKEAEEAAAAAEQAASEEKPGDQTNNTGEPADGQQEGADKKKKASKATELPLECTTHGFSPVDLSNYTQQESKMIGNDQKETERIDAKNALEEFVYDMRNKLQGGPFERYVVEAEREKIVSQLNDLENWLYEDGEDCERDIYTSRLQALHQKTDPIKLRASDYEQGPAAFDELKNSIAIARLAVAEFRKGVPKYDHLTETEFINISETADKAQSWLDANLPKFTQSPRTADSPVQISAVRQEVQTLNSCVSSVINRAKPKPTPAKTATPPKDEANAEQNGGEPAANSGDKMDVDNNGQSAAGNDPSMEVE
